{
  "source": "paper PMC10575594",
  "key": {"[1]": {"target": "Cy3-labeled human 40S subunit (human) (UniProt P62841)", "test": "FRET or BRET"}, "[2]": {"target": "human 40S small ribosomal subunit (human) (UniProt P23396)", "test": "cryo-EM structure"}},
  "data": [
    {"substance": "Cy5-labeled Bat-Hp-CoV Nsp1 (natural protein)", "values": [
      {"measurement": "fraction of tethered 40S complexes that yielded FRET", "setting": "[1]", "result": "10 to 20", "unit": "%"},
      {"measurement": "koff", "setting": "[1]", "result": "< 0.01", "unit": "s⁻¹"},
      {"measurement": "lifetime of the FRET signal", "setting": "[1]", "result": "> 100", "unit": "s"}
    ]},
    {"substance": "Bat-Hp-CoV Nsp1 wild type (natural protein)", "values": [
      {"measurement": "fraction of 40S complexes with density for the Nsp1 linker and NTD", "setting": "[2]", "result": 15, "unit": "%"}
    ]}
  ]
}
